# Numbering of substitutions follows the chain as printed. Names may count otherwise.
# B1: CE115HA000 V95K one-arm antibody (antibody, human IgG1, kappa, L234A L235A, N297A, name in Kabat numbering)
# heavy: QVQLVESGGGVVQPGRSLRLSCAASGFTFSNAWMHWVRQAPGKGLEWVAQIKAKSNNYATYYAESVKGRFTISRDDSKNSLYLQMNSLKTEDTAVYYCRYKHYGAYYGVDAWGQGTTVTVSSASTKGPSVFPLAPSSKSTSGGTAALGCLVKDYFPEPVTVSWNSGALTSGVHTFPAVLQSSGLYSLSSVVTVPSSSLGTQTYICNVNHKPSNTKVDKKVEPKSCDKTHTCPPCPAPEAAGGPSVFLFPPKPKDTLMISRTPEVTCVVVDVSHEDPEVKFNWYVDGVEVHNAKTKPREEQYASTYRVVSVLTVLHQDWLNGKEYKCKVSNKALPAPIEKTISKAKGQPREPQVYTLPPSRCELTKNQVSLSCAVKGFYPSDIAVEWESNGQPENNYKTTPPVLDSDGSFFLVSKLTVDKSRWQQGNVFSCSVMHEALHNHYTQKSLSLSPDYKDDDDK
# chain: EPKSSDKTHTCPPCPAPELLGGPSVFLFPPKPKDTLMISRTPEVTCVVVDVSHEDPEVKFNWYVDGVEVHNAKTKPREEQYNSTYRVVSVLTVLHQDWLNGKEYKCKVSNKALPAPIEKTISKAKGQPREPQVCTLPPSRDELTKNQVSLWCLVKGFYPSDIAVEWESNGQPENNYKTTPPVLDSDGSFFLYSKLTVDKSRWQQGNVFSCSVMHEALHNRYTQKSLSLSP
# light: DIVMTQSPLSLPVTPGEPASISCRSSQSLVHSNRNTYLHWYQQKPGQAPRLLIYKVSNRFSGVPDRFSGSGSGTDFTLKISRVEAEDVGVYYCGQGTQVPYTFGQGTKLEIKRTVAAPSVFIFPPSDEQLKSGTASVVCLLNNFYPREAKVQWKVDNALQSGNSQESVTEQDSKDSTYSLSSTLTLSKADYEKHKVYACEVTHQGLSSPVTKSFNRGEC
# B2: CE115HA000 W33F one-arm antibody (antibody, human IgG1, kappa, L234A L235A, N297A, name in Kabat numbering)
# heavy: B1 heavy with W33F, K101V
# chain: B1 chain
# light: B1 light
# B3: CE115HA000 W33D one-arm antibody (antibody, human IgG1, kappa, L234A L235A, N297A, name in Kabat numbering)
# heavy: B1 heavy with W33D, K101V
# chain: B1 chain
# light: B1 light
# B4: CE115HA000 W33L one-arm antibody (antibody, human IgG1, kappa, L234A L235A, N297A, name in Kabat numbering)
# heavy: B1 heavy with W33L, K101V
# chain: B1 chain
# light: B1 light
# B5: CE115HA000 V100cP one-arm antibody (antibody, human IgG1, kappa, L234A L235A, N297A, name in Kabat numbering)
# heavy: B1 heavy with K101V, V109P
# chain: B1 chain
# light: B1 light
# B6: CE115HA000 W33H one-arm antibody (antibody, human IgG1, kappa, L234A L235A, N297A, name in Kabat numbering)
# heavy: B1 heavy with W33H, K101V
# chain: B1 chain
# light: B1 light
# B7: CE115HA000 V95S one-arm antibody (antibody, human IgG1, kappa, L234A L235A, N297A, name in Kabat numbering)
# heavy: B1 heavy with K101S
# chain: B1 chain
# light: B1 light
# B8: CE115HA000 W33A one-arm antibody (antibody, human IgG1, kappa, L234A L235A, N297A, name in Kabat numbering)
# heavy: B1 heavy with W33A, K101V
# chain: B1 chain
# light: B1 light
# B9: CE115HA000 V100cD one-arm antibody (antibody, human IgG1, kappa, L234A L235A, N297A, name in Kabat numbering)
# heavy: B1 heavy with K101V, V109D
# chain: B1 chain
# light: B1 light
# B10: CE115HA000 V100cE one-arm antibody (antibody, human IgG1, kappa, L234A L235A, N297A, name in Kabat numbering)
# heavy: B1 heavy with K101V, V109E
# chain: B1 chain
# light: B1 light
# Target: T1, CD3 epsilon homodimer protein (UniProt P07766 23-126)
# T1 construct: immobilized on Sensor chip CM4 by amine coupling; also called CD3 (CD3 epsilon)
# Test: SPR (Biacore T200), CD3 epsilon homodimer on CM4 chip, one-arm antibody as analyte, 25 C;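 further: homodimer attached to the sensor surface via amine coupling, HBS-EP+ used as running buffer during binding runs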
# Experimental: An appropriate amount of CD3 epsilon homodimer protein was immobilized onto Sensor chip CM4 (GE Healthcare Japan Corp.) by the amine coupling method. Then, the antibody having an appropriate concentration was injected thereto as an analyte and allowed to interact with the CD3 epsilon homodimer protein on the sensor chip. Then, the sensor chip was regenerated by the injection of 10 mmol/L glycine-HCl (pH 1.5). The assay was conducted at 25 degrees C., and HBS-EP+(GE Healthcare Japan Corp.) was used as a running buffer. […] Each parameter was calculated using Biacore T200 Evaluation Software (GE Healthcare Japan Corp.).
# T1 sequence (P07766 23-126): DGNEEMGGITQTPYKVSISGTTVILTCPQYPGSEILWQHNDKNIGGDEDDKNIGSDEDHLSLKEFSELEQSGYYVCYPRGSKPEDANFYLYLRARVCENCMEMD
row,Binder,ratio of amounts bound (altered form / CE115HA000)
1,B1,0.64
2,B2,0.65
3,B3,0.1
4,B4,0.1
5,B5,0.2
6,B6,0.13
7,B7,0.22
8,B8,0.1
9,B9,0.44
10,B10,0.46

# Reference: patent US20210388087A1 (Chugai, published 2021)
